Results from patent US20120142593A1 (Bayer, published 2012).

Experiments:
[1] = target: human von Willebrand Factor (human) (UniProt P04275); experiment: Biacore SPR, human vWF immobilized on a CM-5 chip by amine coupling, full-length recombinant FVIII passed over as analyte
[2] = target: T1, human von Willebrand Factor (human, UniProt P04275 764-2813); experiment: Biacore SPR, human vWF immobilized on a CM-5 chip by amine coupling, BDD passed over as analyte
T1 construct: also called vWF; vWf
Method: (§1) Human vWF was immobilized onto a CM-5 chip by amine coupling. Two Factor VIII heterodimers (BDDFc+hinge and BDDFc−hinge), BDD (the Factor VIII protein from which BDDFc+hinge and BDDFc−hinge are derived), and full-length recombinant Factor VIII were passed over the surface of the chip at various concentrations (e.g., 1, 2, 4, 8, 16, and 25 nM).

[3] = target: T1, human von Willebrand Factor; experiment: Biacore, human vWF immobilized on CM-5 chip
Method: as §1

[4] = target: T2, recombinant mouse FcRn (mouse, UniProt Q61559 22-297; P01887 21-119, limits assumed); experiment: Biacore, mFcRn immobilized on CM-5 chip
T2 construct: also called mFcRn
T2 sequence (looked up) 1: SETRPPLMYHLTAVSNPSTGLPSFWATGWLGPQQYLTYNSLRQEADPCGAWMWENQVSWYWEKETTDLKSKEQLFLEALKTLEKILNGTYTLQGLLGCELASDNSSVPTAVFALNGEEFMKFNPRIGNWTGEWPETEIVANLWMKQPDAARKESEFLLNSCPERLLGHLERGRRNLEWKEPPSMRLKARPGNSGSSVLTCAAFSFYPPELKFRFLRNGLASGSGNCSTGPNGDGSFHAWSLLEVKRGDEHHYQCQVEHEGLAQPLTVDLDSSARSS
T2 sequence (looked up) 2: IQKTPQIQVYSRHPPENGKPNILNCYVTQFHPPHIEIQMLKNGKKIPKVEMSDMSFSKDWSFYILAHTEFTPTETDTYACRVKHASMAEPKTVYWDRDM
Excerpt: The following example describes functional studies performed using the Biacore™ system to determine whether an FcRn binding epitope retains it ability to bind to FnRn when incorporated in a Factor VIII fusion heterodimer. For use in the Biacore™ test, recombinant mouse FcRn (mFcRn) protein was expressed in CHO-K1 cells and purified by mouse IgG-affinity chromatography. Mouse FcRn was immobilized onto a CM-5 chip by amine coupling. Two Factor VIII heterodimers (BDDFc+hinge and BDDFc−hinge), BDD (the Factor VIII protein from which BDDFc+hinge and BDDFc−hinge are derived), and full-length recombinant Factor VIII were passed over the surface of the chip at various concentrations (e.g., 1.5, 3, 6, 12, 25, and 50 nM). Binding of BDDFc±hinge Factor VIII fusion heterodimers to immobilized mFcRn was detected (FIG. 13).

| Molecule | Kd [1] | Kd [2] | Kd [3] | Kd [4] |
| --- | --- | --- | --- | --- |
| full-length recombinant Factor VIII (from UniProt P00451 20-2351) | 0.657 nM | – | – | – |
| B-domain deleted Factor VIII (BDD) (other, The protein circulates as a heavy chain and light chain heterodimer; also called BDD-FVIII; BDD Factor VIII) ATRRYYLGAVELSWDYMQSDLGELPVDARFPPRVPKSFPFNTSVVYKKTLFVEFTVHLFNIAKPRPPWMGLLGPTIQAEVYDTVVITLKNMASHPVSLHAVGVSYWKASEGAEYDDQTSQREKEDDKVFPGGSHTYVWQVLKENGPMASDPLCLTYSYLSHVDLVKDLNSGLIGALLVCREGSLAKEKTQTLHKFILLFAVFDEGKSWHSETKNSLMQDRDAASARAWPKMHTVNGYVNRSLPGLIGCHRKSVYWHVIGMGTTPEVHSIFLEGHTFLVRNHRQASLEISPITFLTAQTLLMDLGQFLLFCHISSHQHDGMEAYVKVDSCPEEPQLRMKNNEEAEDYDDDLTDSEMDVVRFDDDNSPSFIQIRSVAKKHPKTWVHYIAAEEEDWDYAPLVLAPDDRSYKSQYLNNGPQRIGRKYKKVRFMAYTDETFKTREAIQHESGILGPLLYGEVGDTLLIIFKNQASRPYNIYPHGITDVRPLYSRRLPKGVKHLKDFPILPGEIFKYKWTVTVEDGPTKSDPRCLTRYYSSFVNMERDLASGLIGPLLICYKESVDQRGNQIMSDKRNVILFSVFDENRSWYLTENIQRFLPNPAGVQLEDPEFQASNIMHSINGYVFDSLQLSVCLHEVAYWYILSIGAQTDFLSVFFSGYTFKHKMVYEDTLTLFPFSGETVFMSMENPGLWILGCHNSDFRNRGMTALLKVSSCDKNTGDYYEDSYEDISAYLLSKNNAIEPRSFSQNPPVLKRHQREITRTTLQSDQEEIDYDDTISVEMKKEDFDIYDEDENQSPRSFQKKTRHYFIAAVERLWDYGMSSSPHVLRNRAQSGSVPQFKKVVFQEFTDGSFTQPLYRGELNEHLGLLGPYIRAEVEDNIMVTFRNQASRPYSFYSSLISYEEDQRQGAEPRKNFVKPNETKTYFWKVQHHMAPTKDEFDCKAWAYFSDVDLEKDVHSGLIGPLLVCHTNTLNPAHGRQVTVQEFALFFTIFDETKSWYFTENMERNCRAPCNIQMEDPTFKENYRFHAINGYIMDTLPGLVMAQDQRIRWYLLSMGSNENIHSIHFSGHVFTVRKKEEYKMALYNLYPGVFETVEMLPSKAGIWRVECLIGEHLHAGMSTLFLVYSNKCQTPLGMASGHIRDFQITASGQYGQWAPKLARLHYSGSINAWSTKEPFSWIKVDLLAPMIIHGIKTQGARQKFSSLYISQFIIMYSLDGKKWQTYRGNSTGTLMVFFGNVDSSGIKHNIFNPPIIARYIRLHPTHYSIRSTLRMELMGCDLNSCSMPLGMESKAISDAQITASSYFTNMFATWSPSKARLHLQGRSNAWRPQVNNPKEWLQVDFQKTMKVTGVTTQGVKSLLTSMYVKEFLISSSQDGHQWTLFFQNGKVKVFQGNQDSFTPVVNSLDPPLLTRYLRIHPQSWVHQIALRMEVLGCEAQDLY | – | 0.53 nM | – | – |
| BDDFc+hinge Factor VIII fusion heterodimer (Fc fusion, also called BDDmFc+hinge expression product) ATRRYYLGAVELSWDYMQSDLGELPVDARFPPRVPKSFPFNTSVVYKKTLFVEFTDHLFNIAKPRPPWMGLLGPTIQAEVYDTVVITLKNMASHPVSLHAVGVSYWKASEGAEYDDQTSQREKEDDKVFPGGSHTYVWQVLKENGPMASDPLCLTYSYLSHVDLVKDLNSGLIGALLVCREGSLAKEKTQTLHKFILLFAVFDEGKSWHSETKNSLMQDRDAASARAWPKMHTVNGYVNRSLPGLIGCHRKSVYWHVIGMGTTPEVHSIFLEGHTFLVRNHRQASLEISPITFLTAQTLLMDLGQFLLFCHISSHQHDGMEAYVKVDSCPEEPQLRMKNNEEAEDYDDDLTDSEMDVVRFDDDNSPSFIQIRSVAKKHPKTWVHYIAAEEEDWDYAPLVLAPDDRSYKSQYLNNGPQRIGRKYKKVRFMAYTDETFKTREAIQHESGILGPLLYGEVGDTLLIIFKNQASRPYNIYPHGITDVRPLYSRRLPKGVKHLKDFPILPGEIFKYKWTVTVEDGPTKSDPRCLTRYYSSFVNMERDLASGLIGPLLICYKESVDQRGNQIMSDKRNVILFSVFDENRSWYLTENIQRFLPNPAGVQLEDPEFQASNIMHSINGYVFDSLQLSVCLHEVAYWYILSIGAQTDFLSVFFSGYTFKHKMVYEDTLTLFPFSGETVFMSMENPGLWILGCHNSDFRNRGMTALLKVSSCDKNTGDYYEDSYEDISAYLLSKNNAIEPRSFSQNVPRDCGCKPCICTVPEVSSVFIFPPKPKDVLTITLTPKVTCVVVDISKDDPEVQFSWFVDDVEVHTAQTQPREEQFNSTFRSVSELPIMHQDWLNGKEFKCRVNSAAFPAPIEKTISKTKGRPKAPQVYTIPPPKEQMAKDKVSLTCMITDFFPEDITVEWQWNGQPAENYKNTQPIMDTDGSYFVYSKLNVQKSNWEAGNTFTCSVLHEGLHNHHTEKSLSHSPGKSQNPPVLKRHQREITRTTLQSDQEEIDYDDTISVEMKKEDFDIYDEDENQSPRSFQKKTRHYFIAAVERLWDYGMSSSPHVLRNRAQSGSVPQFKKVVFQEFTDGSFTQPLYRGELNEHLGLLGPYIRAEVEDNIMVTFRNQASRPYSFYSSLISYEEDQRQGAEPRKNFVKPNETKTYFWKVQHHMAPTKDEFDCKAWAYFSDVDLEKDVHSGLIGPLLVCHTNTLNPAHGRQVTVQEFALFFTIFDETKSWYFTENMERNCRAPCNIQMEDPTFKENYRFHAINGYIMDTLPGLVMAQDQRIRWYLLSMGSNENIHSIHFSGHVFTVRKKEEYKMALYNLYPGVFETVEMLPSKAGIWRVECLIGEHLHAGMSTLFLVYSNKCQTPLGMASGHIRDFQITASGQYGQWAPKLARLHYSGSINAWSTKEPFSWIKVDLLAPMIIHGIKTQGARQKFSSLYISQFIIMYSLDGKKWQTYRGNSTGTLMVFFGNVDSSGIKHNIFNPPIIARYIRLHPTHYSIRSTLRMELMGCDLNSCSMPLGMESKAISDAQITASSYFTNMFATWSPSKARLHLQGRSNAWRPQVNNPKEWLQVDFQKTMKVTGVTTQGVKSLLTSMYVKEFLISSSQDGHQWTLFFQNGKVKVFQGNQDSFTPVVNSLDPPLLTRYLRIHPQSWVHQIALRMEVLGCEAQDLY | – | – | 0.465 nM | 2.48 nM |
| BDDFc-hinge Factor VIII fusion heterodimer (Fc fusion, No signal peptide limits are stated on this entry; It is processed into a heavy chain-Fc chimera and a light chain; also called BDDmFc-hinge expression product; FVIII-Fc) ATRRYYLGAVELSWDYMQSDLGELPVDARFPPRVPKSFPFNTSVVYKKTLFVEFTDHLFNIAKPRPPWMGLLGPTIQAEVYDTVVITLKNMASHPVSLHAVGVSYWKASEGAEYDDQTSQREKEDDKVFPGGSHTYVWQVLKENGPMASDPLCLTYSYLSHVDLVKDLNSGLIGALLVCREGSLAKEKTQTLHKFILLFAVFDEGKSWHSETKNSLMQDRDAASARAWPKMHTVNGYVNRSLPGLIGCHRKSVYWHVIGMGTTPEVHSIFLEGHTFLVRNHRQASLEISPITFLTAQTLLMDLGQFLLFCHISSHQHDGMEAYVKVDSCPEEPQLRMKNNEEAEDYDDDLTDSEMDVVRFDDDNSPSFIQIRSVAKKHPKTWVHYIAAEEEDWDYAPLVLAPDDRSYKSQYLNNGPQRIGRKYKKVRFMAYTDETFKTREAIQHESGILGPLLYGEVGDTLLIIFKNQASRPYNIYPHGITDVRPLYSRRLPKGVKHLKDFPILPGEIFKYKWTVTVEDGPTKSDPRCLTRYYSSFVNMERDLASGLIGPLLICYKESVDQRGNQIMSDKRNVILFSVFDENRSWYLTENIQRFLPNPAGVQLEDPEFQASNIMHSINGYVFDSLQLSVCLHEVAYWYILSIGAQTDFLSVFFSGYTFKHKMVYEDTLTLFPFSGETVFMSMENPGLWILGCHNSDFRNRGMTALLKVSSCDKNTGDYYEDSYEDISAYLLSKNNAIEPRSFSQNVPEVSSVFIFPPKPKDVLTITLTPKVTCVVVDISKDDPEVQFSWFVDDVEVHTAQTQPREEQFNSTFRSVSELPIMHQDWLNGKEFKCRVNSAAFPAPIEKTISKTKGRPKAPQVYTIPPPKEQMAKDKVSLTCMITDFFPEDITVEWQWNGQPAENYKNTQPIMDTDGSYFVYSKLNVQKSNWEAGNTFTCSVLHEGLHNHHTEKSLSHSPGKSQNPPVLKRHQREITRTTLQSDQEEIDYDDTISVEMKKEDFDIYDEDENQSPRSFQKKTRHYFIAAVERLWDYGMSSSPHVLRNRAQSGSVPQFKKVVFQEFTDGSFTQPLYRGELNEHLGLLGPYIRAEVEDNIMVTFRNQASRPYSFYSSLISYEEDQRQGAEPRKNFVKPNETKTYFWKVQHHMAPTKDEFDCKAWAYFSDVDLEKDVHSGLIGPLLVCHTNTLNPAHGRQVTVQEFALFFTIFDETKSWYFTENMERNCRAPCNIQMEDPTFKENYRFHAINGYIMDTLPGLVMAQDQRIRWYLLSMGSNENIHSIHFSGHVFTVRKKEEYKMALYNLYPGVFETVEMLPSKAGIWRVECLIGEHLHAGMSTLFLVYSNKCQTPLGMASGHIRDFQITASGQYGQWAPKLARLHYSGSINAWSTKEPFSWIKVDLLAPMIIHGIKTQGARQKFSSLYISQFIIMYSLDGKKWQTYRGNSTGTLMVFFGNVDSSGIKHNIFNPPIIARYIRLHPTHYSIRSTLRMELMGCDLNSCSMPLGMESKAISDAQITASSYFTNMFATWSPSKARLHLQGRSNAWRPQVNNPKEWLQVDFQKTMKVTGVTTQGVKSLLTSMYVKEFLISSSQDGHQWTLFFQNGKVKVFQGNQDSFTPVVNSLDPPLLTRYLRIHPQSWVHQIALRMEVLGCEAQDLY | – | – | 0.908 nM | 3.75 nM |
